Data published in patent publication US20240059789A1 (Janssen / Centocor, published 2024).

How the values were obtained:
[1] = molecular target: T1, Human PSMA on prostate cancer cell lines (C4-2B, 22RV1) (human, UniProt Q04609 1-750); experiment: cell-based or functional assay
[2] = molecular target: T1, Human PSMA on prostate cancer cell …; experiment: cell-based or functional assay; remark: listed apart in the source

T1 sequence (Q04609 whole entry): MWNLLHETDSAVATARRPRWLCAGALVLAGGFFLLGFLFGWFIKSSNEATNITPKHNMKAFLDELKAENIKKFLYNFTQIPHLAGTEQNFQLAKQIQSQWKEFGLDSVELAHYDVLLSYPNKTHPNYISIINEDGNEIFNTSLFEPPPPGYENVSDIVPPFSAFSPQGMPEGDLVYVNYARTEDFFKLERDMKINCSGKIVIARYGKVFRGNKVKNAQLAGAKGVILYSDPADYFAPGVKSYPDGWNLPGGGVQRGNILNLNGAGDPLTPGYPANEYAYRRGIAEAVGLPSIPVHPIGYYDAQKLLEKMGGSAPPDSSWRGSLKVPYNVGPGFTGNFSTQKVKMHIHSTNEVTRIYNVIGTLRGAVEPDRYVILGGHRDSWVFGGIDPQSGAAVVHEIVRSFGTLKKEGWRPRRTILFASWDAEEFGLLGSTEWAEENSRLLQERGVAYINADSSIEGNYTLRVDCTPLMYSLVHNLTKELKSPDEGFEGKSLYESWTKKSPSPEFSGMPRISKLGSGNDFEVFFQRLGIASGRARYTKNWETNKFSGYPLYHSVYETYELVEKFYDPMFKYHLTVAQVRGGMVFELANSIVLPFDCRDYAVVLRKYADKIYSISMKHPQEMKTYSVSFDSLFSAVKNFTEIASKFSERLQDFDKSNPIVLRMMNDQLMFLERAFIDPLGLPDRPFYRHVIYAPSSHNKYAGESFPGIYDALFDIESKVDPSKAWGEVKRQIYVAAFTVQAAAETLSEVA

% cytolysis at 120 hours (C4-2B, xCelligence, donor #1) at 80 pM [1]: 100%
% cytolysis at 120 hours (C4-2B, xCelligence, donor #1) at 0.4 nM [1]: 100%
% cytolysis at 120 hours (C4-2B, xCelligence, donor #1) at 2 nM [1]: 100%
% cytolysis at 120 hours (C4-2B, xCelligence, donor #1) at 10 nM [1]: 100%
% cytolysis at 120 hours (C4-2B, xCelligence, donor #1) at 50 nM [1]: 100%
% cytolysis at 120 hours (C4-2B, xCelligence, donor #2) at 80 pM [1]: 100%
% cytolysis at 120 hours (C4-2B, xCelligence, donor #2) at 0.4 nM [1]: 100%
% cytolysis at 120 hours (C4-2B, xCelligence, donor #2) at 2 nM [1]: 100%
% cytolysis at 120 hours (C4-2B, xCelligence, donor #2) at 10 nM [1]: 100%
% cytolysis at 120 hours (C4-2B, xCelligence, donor #2) at 50 nM [1]: 100%
% cytolysis at 120 hours (C4-2B, xCelligence, donor #3) at 80 pM [1]: 100%
% cytolysis at 120 hours (C4-2B, xCelligence, donor #3) at 0.4 nM [1]: 100%
% cytolysis at 120 hours (C4-2B, xCelligence, donor #3) at 2 nM [1]: 100%
% cytolysis at 120 hours (C4-2B, xCelligence, donor #3) at 10 nM [1]: 100%
% cytolysis at 120 hours (C4-2B, xCelligence, donor #3) at 50 nM [1]: 100%
B1: PS3B1357 (bispecific antibody, human IgG1, lambda, L234A L235A)
heavy 1: QVQLQQSGPGLVKPSQTLSLTCAISGDSVFNNNAAWSWIRQSPSRGLEWLGRTYYRSKWLYDYAVSVKSRITINPDTSKNQFSLQLNSVTPEDTAVYYCARGYSSSFDYWGQGTLVTVSSASTKGPSVFPLAPSSKSTSGGTAALGCLVKDYFPEPVTVSWNSGALTSGVHTFPAVLQSSGLYSLSSVVTVPSSSLGTQTYICNVNHKPSNTKVDKKVEPKSCDKTHTCPPCPAPEAAGGPSVFLFPPKPKDTLMISRTPEVTCVVVSVSHEDPEVKFNWYVDGVEVHNAKTKPREEQYNSTYRVVSVLTVLHQDWLNGKEYKCKVSNKALPAPIEKTISKAKGQPREPQVYTLPPSREEMTKNQVSLTCLVKGFYPSDIAVEWESNGQPENNYKTTPPVLDSDGSFLLYSKLTVDKSRWQQGNVFSCSVMHEALHNHYTQKSLSLSPGK
light 1: QSALTQPASVSGSPGQSITISCTGTSSNIGTYKFVSWYQQHPGKAPKVMIYEVSKRPSGVSNRFSGSKSGNTASLTISGLQAEDEADYYCVSYAGSGTLLFGGGTKLTVLGQPKAAPSVTLFPPSSEELQANKATLVCLISDFYPGAVTVAWKADSSPVKAGVETTTPSKQSNNKYAASSYLSLTPEQWKSHRSYSCQVTHEGSTVEKTVAPTECS
heavy 2: EVQLVESGGGLVQPGGSLRLSCAASGFTFSSYAMSWVRQAPGKGLEWVSAISGGIGSTYYADSVKGRFTISRDNSKNTLWLQMNSLRAEDTAVYYCAKDGVGATPYYFDYWGQGTLVTVSSASTKGPSVFPLAPSSKSTSGGTAALGCLVKDYFPEPVTVSWNSGALTSGVHTFPAVLQSSGLYSLSSVVTVPSSSLGTQTYICNVNHKPSNTKVDKKVEPKSCDKTHTCPPCPAPEAAGGPSVFLFPPKPKDTLMISRTPEVTCVVVSVSHEDPEVKFNWYVDGVEVHNAKTKPREEQYNSTYRVVSVLTVLHQDWLNGKEYKCKVSNKALPAPIEKTISKAKGQPREPQVYTLPPSREEMTKNQVSLTCLVKGFYPSDIAVEWESNGQPENNYKTTPPVLDSDGSFFLYSRLTVDKSRWQQGNVFSCSVMHEALHNHYTQKSLSLSPGK
light 2: QSVLTQPPSVSAAPGQKVTISCSGSSSNIGINYVSWYQQLPGTAPKLLIYDNNKRPSGIPDRFSGSKSGTSATLGITGLQTGDEADYYCGTWDSSLSAVVFGGGTKLTVLGQPKAAPSVTLFPPSSEELQANKATLVCLISDFYPGAVTVAWKADSSPVKAGVETTTPSKQSNNKYAASSYLSLTPEQWKSHRSYSCQVTHEGSTVEKTVAPTECS
Cytotoxicity (C4-2B cells, 3:1 E:T ratio, 5 Day) at 0.3 nM [2]: 96%
Cytotoxicity (C4-2B cells, 3:1 E:T ratio, 5 Day) at 1.1 nM [2]: 96%
Cytotoxicity (C4-2B cells, 3:1 E:T ratio, 5 Day) at 3.3 nM [2]: 95%
Cytotoxicity (C4-2B cells, 3:1 E:T ratio, 5 Day) at 10 nM [2]: 96%
Cytotoxicity (C4-2B cells, 3:1 E:T ratio, 5 Day) at 30 nM [2]: 91%
